Laboratory results reported in patent US20160200786A1.
Ends that are not written are not given here.

B1: BCLXBH3 (peptide)
peptide: VIPMAAVKQALREAGDEFEL
modifications: fluorescein at the amino-terminus via an AHA linker in the Kd assays; unlabelled as competitor and on mitochondria

Columns and labels:
[1] = target: GST-BCL-2δC21 fusion protein [GST: P08515]; assay: fluorescence polarization, unlabelled peptide displacing 25 nM fluoresceinated BIDBH3 from 1 µM GST-BCL-2
[2] = target: GST-BCL-2δC21 fusion protein [GST: P08515]; assay: fluorescence polarization, 25 nM fluorescein-peptide titrated with GST-BCL-2, 37 C
[3] = target: GST-BCL-2δC21 fusion protein [GST: P08515]; assay: fluorescence polarization, unlabelled peptide displacing 25 nM fluoresceinated BIDBH3 from 1 µM GST-BCL-2; SD +/- 60
[4] = target: GST-BCL-2δC21 fusion protein [GST: P08515]; assay: fluorescence polarization, 25 nM fluorescein-peptide titrated with GST-BCL-2, 37 C; SD +/- 6
[5] = target: GST-BCL-2δC21 fusion protein [GST: P08515]; assay: fluorescence polarization, Kd of BADBH3 against Kd of BIDBH3 on BCL-2
[6] = target: GST-BCL-2δC21 fusion protein [GST: P08515]; assay: fluorescence polarization, 25 nM fluorescein-peptide titrated with GST-BCL-2, 37 C; SD +/- 11
[7] = target: GST-BCL-2δC21 fusion protein [GST: P08515]; assay: fluorescence polarization, 25 nM fluorescein-peptide titrated with GST-BCL-2, 37 C; SD +/- 272
[8] = target: GST-BCL-2δC21 fusion protein [GST: P08515]; assay: fluorescence polarization, unlabelled peptide displacing 25 nM fluoresceinated BIDBH3 from 1 µM GST-BCL-2; SD +/- 1648

Row | Molecule | IC50 [1] | Kd [2] | also measured
1 | NOXABBH3 (peptide) | > 30 µM | > 1 µM | –
2 | NOXAABH3 (peptide) | > 30 µM | > 1 µM | –
3 | EDIIRNIARHAAQVGASMDR (not fully specified) [BIDBH3 mut] | > 30 µM | > 1 µM | –
4 | B1 | > 30 µM | > 1 µM | –
5 | LWAAQRYGRELRRMSDEFEGSFKGL (not fully specified) [mBADBH3] | – | – | IC50 [3]: 0.173 µM; Kd [4]: 0.039 µM
6 | NLWAAQRYGRELRRMSDEFVDSFKK (not fully specified) [BADBH3] | – | – | fold greater affinity than BIDBH3 peptide [5]: 5 fold; Kd [6]: 0.041 µM
7 | MEGSDALALRLACIGDEMDV (not fully specified) [BIKBH3] | – | – | Kd [7]: 0.485 µM; IC50 [8]: 4.92 µM
